Test results reported in article doi:10.1101/2020.06.25.170399 (bioRxiv, 2020).

Molecular target: T1, γ subunit of human NAD-dependent isocitrate dehydrogenase (IDH3) (human, UniProt P51553 40-393)
T1 sequence: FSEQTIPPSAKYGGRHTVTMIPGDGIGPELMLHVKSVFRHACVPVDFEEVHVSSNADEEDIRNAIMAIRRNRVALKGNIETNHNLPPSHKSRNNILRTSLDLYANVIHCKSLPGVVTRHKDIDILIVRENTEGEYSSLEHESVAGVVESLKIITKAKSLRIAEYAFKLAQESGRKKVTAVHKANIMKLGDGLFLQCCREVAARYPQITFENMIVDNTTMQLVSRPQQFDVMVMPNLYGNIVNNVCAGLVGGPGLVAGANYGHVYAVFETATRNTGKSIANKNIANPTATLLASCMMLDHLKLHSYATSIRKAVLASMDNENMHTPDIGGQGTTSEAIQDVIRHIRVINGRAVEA
Test: SEC-MALS

binding result: binds
B1: α subunit of human NAD-dependent isocitrate dehydrogenase (IDH3) (natural protein)
chain: TGGVQTVTLIPGDGIGPEISAAVMKIFDAAKAPIQWEERNVTAIQGPGGKWMIPSEAKESMDKNKMGLKGPLKTPIAAGHPSMNLLLRKTFDLYANVRPCVSIEGYKTPYTDVNIVTIRENTEGEYSGIEHVIVDGVVQSIKLITEGASKRIAEFAFEYARNNHRSNVTAVHKANIMRMSDGLFLQKCREVAESCKDIKFNEMYLDTVCLNMVQDPSQFDVLVMPNLYGDILSDLCAGLIGGLGVTPSGNIGANGVAIFESVHGTAPDIAGKDMANPTALLLSAVMMLRHMGLFDHAARIEAACFATIKDGKSLTKDLGGNAKCSDFTEEICRRVKDLD
